Results as given in paper PMC9436968, “Crosstalk between SUMOylation and ubiquitylation controls DNA end resection by maintaining MRE11 homeostasis on chromatin” (Nature Communications, 2022).

How the values were obtained:
[1] = target: T1, Flag-4KR (complexed with RAD50) (UniProt P49959 1-708; Q92878 1-1312, K255R | K384R | K416R | K467R); test: pull-down; purified proteins incubated in T50 buffer (25 mM Tris-HCl pH 7.5, 10% glycerol, 0.5 mM EDTA, 50 mM KCl, 1 mM DTT, 0.01% Igepal) on ice for 2 h, pulled down by anti-Flag M2 beads; supernatant and eluate immunoblotted; details: both partners purified
T1 construct: MRE11 with the four lysine-to-arginine mutations (4KR); RAD50, His-tagged, as in the MRE11/RAD50 complex; also called MRE11 4KR mutant; SUMOylation-deficient MRE11; source: purified, complexed with RAD50; the host is told for the MRE11/RAD50 complex: yeast
T1 sequence (P49959 whole entry K255R/K384R/K416R/K467R, chain 1 of 2): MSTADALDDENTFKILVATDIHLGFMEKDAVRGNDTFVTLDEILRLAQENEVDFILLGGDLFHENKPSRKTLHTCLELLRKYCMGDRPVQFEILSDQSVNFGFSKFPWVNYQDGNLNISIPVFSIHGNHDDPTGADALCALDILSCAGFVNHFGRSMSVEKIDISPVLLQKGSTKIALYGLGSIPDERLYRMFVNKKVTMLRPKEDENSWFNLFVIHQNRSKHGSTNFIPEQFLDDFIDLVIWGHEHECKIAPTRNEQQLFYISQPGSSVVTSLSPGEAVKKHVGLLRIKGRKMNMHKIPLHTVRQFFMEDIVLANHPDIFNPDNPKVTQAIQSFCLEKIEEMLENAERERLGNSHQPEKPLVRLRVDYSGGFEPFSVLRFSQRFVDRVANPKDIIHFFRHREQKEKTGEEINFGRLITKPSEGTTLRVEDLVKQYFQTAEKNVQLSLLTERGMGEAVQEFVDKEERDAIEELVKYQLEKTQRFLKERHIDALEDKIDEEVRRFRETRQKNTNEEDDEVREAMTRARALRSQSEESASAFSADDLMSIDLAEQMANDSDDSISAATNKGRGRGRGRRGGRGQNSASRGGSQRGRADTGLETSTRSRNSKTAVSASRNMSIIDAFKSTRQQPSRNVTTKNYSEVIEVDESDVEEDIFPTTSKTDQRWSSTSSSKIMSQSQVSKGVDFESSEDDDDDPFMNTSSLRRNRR
T1 sequence (Q92878 whole entry, chain 2 of 2): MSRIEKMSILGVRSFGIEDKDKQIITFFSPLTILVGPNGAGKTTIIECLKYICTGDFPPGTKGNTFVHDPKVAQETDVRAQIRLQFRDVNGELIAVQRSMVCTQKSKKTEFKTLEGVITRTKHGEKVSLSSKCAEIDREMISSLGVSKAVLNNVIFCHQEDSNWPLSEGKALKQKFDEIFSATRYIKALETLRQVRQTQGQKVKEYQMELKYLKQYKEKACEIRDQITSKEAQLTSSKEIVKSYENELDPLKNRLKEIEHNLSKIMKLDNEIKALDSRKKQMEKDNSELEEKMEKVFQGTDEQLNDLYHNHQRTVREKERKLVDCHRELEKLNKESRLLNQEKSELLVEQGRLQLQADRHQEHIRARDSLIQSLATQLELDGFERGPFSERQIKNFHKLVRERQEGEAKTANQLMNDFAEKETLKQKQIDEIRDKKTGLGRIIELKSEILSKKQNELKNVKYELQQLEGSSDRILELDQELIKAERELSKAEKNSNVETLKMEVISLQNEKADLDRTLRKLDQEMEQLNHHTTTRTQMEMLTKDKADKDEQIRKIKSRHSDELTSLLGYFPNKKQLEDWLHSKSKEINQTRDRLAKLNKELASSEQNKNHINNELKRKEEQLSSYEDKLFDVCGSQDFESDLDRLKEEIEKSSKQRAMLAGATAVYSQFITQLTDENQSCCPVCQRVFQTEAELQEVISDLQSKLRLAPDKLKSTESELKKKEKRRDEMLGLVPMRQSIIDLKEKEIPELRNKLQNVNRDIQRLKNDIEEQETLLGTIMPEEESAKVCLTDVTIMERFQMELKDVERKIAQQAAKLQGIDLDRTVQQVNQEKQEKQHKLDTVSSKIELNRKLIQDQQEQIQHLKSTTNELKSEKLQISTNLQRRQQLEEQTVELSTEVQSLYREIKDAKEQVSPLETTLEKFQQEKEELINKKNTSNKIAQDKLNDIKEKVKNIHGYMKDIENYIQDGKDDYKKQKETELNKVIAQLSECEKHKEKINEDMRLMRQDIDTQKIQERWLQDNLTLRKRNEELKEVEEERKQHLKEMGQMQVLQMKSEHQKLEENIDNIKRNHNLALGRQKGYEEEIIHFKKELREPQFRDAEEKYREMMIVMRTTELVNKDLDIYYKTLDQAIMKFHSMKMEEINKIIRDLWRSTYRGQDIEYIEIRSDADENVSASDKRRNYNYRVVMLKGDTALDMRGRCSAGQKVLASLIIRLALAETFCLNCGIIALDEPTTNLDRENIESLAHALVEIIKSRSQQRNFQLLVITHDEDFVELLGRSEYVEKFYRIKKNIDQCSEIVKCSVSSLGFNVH

[2] = target: T2, Flag-WT-MRE11 (complexed with RAD50) (UniProt P49959 1-708; Q92878 1-1312); test: as above; details: both partners purified
T2 construct: MRE11, Flag-tagged, in the pESC-URA vector; RAD50, His-tagged, in the pESC-URA vector; The results call it Flag-MRE11; also called MRE11/RAD50 complex; Flag-MRE11; source: protease-deficient yeast strain, co-expressed, purified (Ni-NTA, anti-Flag M2 beads)
T2 sequence (P49959 whole entry, chain 1 of 2): as the sequence (P49959 whole entry K255R/K384R/K416R/K467R, chain 1 of 2) above, with R255K, R384K, R416K, R467K counted along it
T2 sequence (Q92878 whole entry, chain 2 of 2): as the sequence (Q92878 whole entry, chain 2 of 2) above

B1: MBP-NBS1 (natural protein, UniProt O60934 1-754, looked up)
chain: MWKLLPAAGPAGGEPYRLLTGVEYVVGRKNCAILIENDQSISRNHAVLTANFSVTNLSQTDEIPVLTLKDNSKYGTFVNEEKMQNGFSRTLKSGDGITFGVFGSKFRIEYEPLVACSSCLDVSGKTALNQAILQLGGFTVNNWTEECTHLVMVSVKVTIKTICALICGRPIVKPEYFTEFLKAVESKKQPPQIESFYPPLDEPSIGSKNVDLSGRQERKQIFKGKTFIFLNAKQHKKLSSAVVFGGGEARLITEENEEEHNFFLAPGTCVVDTGITNSQTLIPDCQKKWIQSIMDMLQRQGLRPIPEAEIGLAVIFMTTKNYCDPQGHPSTGLKTTTPGPSLSQGVSVDEKLMPSAPVNTTTYVADTESEQADTWDLSERPKEIKVSKMEQKFRMLSQDAPTVKESCKTSSNNNSMVSNTLAKMRIPNYQLSPTKLPSINKSKDRASQQQQTNSIRNYFQPSTKKRERDEENQEMSSCKSARIETSCSLLEQTQPATPSLWKNKEQHLSENEPVDTNSDNNLFTDTDLKSIVKNSASKSHAAEKLRSNKKREMDDVAIEDEVLEQLFKDTKPELEIDVKVQKQEEDVNVRKRPRMDIETNDTFSDEAVPESSKISQENEIGKKRELKEDSLWSAKEISNNDKLQDDSEMLPKKLLLTEFRSLVIKNSTSRNPSGINDDYGQLKNFKKFKKVTYPGAGKLPHIIGGSDLIAHHARKNTELEEWLRQEMEVQNQHAKEESLADDLFRYNPYLKRRR
notes: NBS1, MBP- and His-tagged, in the pFastBac vector; also called MBP- and His-tagged NBS1; source: High Five cells (baculovirus), purified (amylose beads, Ni-NTA)
B1: binds [1]; binds [2].
